According to paper PMC5227094:

Target: PSD95 (mouse (endogenous in forebrain)) (UniProt Q62108)
Assay: native gel or EMSA; BNP GluN1 immunoblot of forebrain deoxycholate extracts of WT and Glun2b^2A(CTR)/2A(CTR) mice; 1.5-NR band quantified relative to WT

Chain of UniProt Q62108 (Q62108 whole entry): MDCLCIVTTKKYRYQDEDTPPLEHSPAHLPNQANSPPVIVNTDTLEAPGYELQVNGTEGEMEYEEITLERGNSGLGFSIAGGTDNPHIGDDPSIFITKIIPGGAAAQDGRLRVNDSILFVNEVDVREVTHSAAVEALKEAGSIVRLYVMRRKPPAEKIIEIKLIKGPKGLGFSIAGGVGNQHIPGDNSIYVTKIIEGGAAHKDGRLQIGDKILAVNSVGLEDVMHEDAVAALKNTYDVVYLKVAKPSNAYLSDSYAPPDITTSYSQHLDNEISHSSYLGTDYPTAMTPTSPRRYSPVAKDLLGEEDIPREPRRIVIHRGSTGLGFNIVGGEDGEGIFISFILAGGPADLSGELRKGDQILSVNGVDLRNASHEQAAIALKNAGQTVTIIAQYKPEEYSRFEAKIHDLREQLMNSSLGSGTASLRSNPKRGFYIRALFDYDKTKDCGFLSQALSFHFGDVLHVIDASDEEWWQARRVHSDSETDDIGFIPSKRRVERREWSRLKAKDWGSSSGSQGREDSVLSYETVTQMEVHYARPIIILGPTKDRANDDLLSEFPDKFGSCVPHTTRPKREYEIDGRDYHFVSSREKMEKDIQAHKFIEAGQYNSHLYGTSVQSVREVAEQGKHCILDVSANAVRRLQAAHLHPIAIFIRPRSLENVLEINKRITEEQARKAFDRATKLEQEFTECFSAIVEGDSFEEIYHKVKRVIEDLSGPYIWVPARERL

1.5-NR, % of WT: 6 % of WT
Substance: GluN2B with its C-terminal domain replaced by that of GluN2A (Glun2b^2A(CTR)/2A(CTR) knock-in)
